The target of test [1] is T1, hu-M-IL1RAP construct, positions S21-T367 (extracellular domain of the membrane form of human IL1RAP) (human, UniProt Q9NPH3 21-367).
T1 construct: Biotinylated when captured on the Biacore chip
T1 sequence: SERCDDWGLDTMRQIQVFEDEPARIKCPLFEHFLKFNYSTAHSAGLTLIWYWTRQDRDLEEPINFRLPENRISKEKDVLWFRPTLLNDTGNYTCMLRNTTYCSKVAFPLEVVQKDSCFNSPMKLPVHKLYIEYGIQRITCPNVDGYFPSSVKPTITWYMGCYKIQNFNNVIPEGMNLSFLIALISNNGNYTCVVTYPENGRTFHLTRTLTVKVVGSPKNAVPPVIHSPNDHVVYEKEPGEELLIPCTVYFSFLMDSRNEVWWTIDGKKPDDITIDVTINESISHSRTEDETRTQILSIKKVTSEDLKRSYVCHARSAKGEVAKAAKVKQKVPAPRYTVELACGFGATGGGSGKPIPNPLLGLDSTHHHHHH
Kind of test: SPR, Fab analyte, 25 C.
Experimental: (§1) Surface plasmon resonance (SPR) analysis was used to determine binding affinity for hu-M-IL1RAP of the purified Fabs containing the selected single, double, and triple mutations in either the VL or VH regions using a BIACORE™ 8K instrument. […] For kinetics measurements, 5 nM biotinylated hu-M-IL1RAP was captured at 10 μL/min to achieve ˜50 response units in the second flow cell (FC2). FC1 was kept as a reference. […] The sensorgrams were recorded and subjected to reference and buffer subtraction before data analysis with the BIACORE® 8K Evaluation Software (version 1.1.1.7442). Association rates (kₒₙ) and dissociation rates (koff) were calculated using a simple one-to-one Langmuir binding model. The equilibrium dissociation constant (KD) was calculated as the ratio of koff/kₒₙ.

Test [2] concerns the target T1, hu-M-IL1RAP construct, positions …. Kind of test: SPR, Fab against parent Fab. In general terms: In SPR one partner is held on a chip, and binding of the other changes the refractive index at the surface.
Test [3] has the same target. Kind of test: phage display selection of affinity maturation libraries + NGS; enrichment of the mutation F29Q (VH).
Experimental: (§2) For the first panning round, plates and phage libraries were blocked in PBS buffer containing 0.05% TWEEN® 20 and 1% BSA for either 1 hour (plates) or 30 minutes (phage libraries). Plates were washed in Wash Buffer (PBS buffer containing 0.05% TWEEN® 20) and incubated with blocked phage libraries for 2 hours with shaking. Non-specifically bound phage was removed by washing vigorously with Wash Buffer. […] Non-specific interactions were inhibited by adding 1/10th v/v 1% BSA.
(§3) For panning rounds three through five, phage libraries were incubated with blocking buffer (PBS buffer with 1% BSA in round 3 and SUPERBLOCK™ PBS buffer (Pierce) and 0.05% TWEEN® 20 in rounds 4 and 5) for 30 minutes and then incubated with decreasing concentrations of biotinylated hu-M-IL1RAP for 1 hour. Hu-M-IL1RAP-bound phage were captured on blocked neutravidin-coated plates, washed extensively with Wash Buffer, and eluted and neutralized in the same manner as in rounds 1 and 2. In the final selection round, 1000× non-biotinylated hu-M-IL1RAP was added as a competitor to increase the selection stringency.
(§4) To extract sequences from affinity maturation libraries using NGS, phagemid double stranded DNA was isolated from E. coli XL-1 cells carrying phagemids from the initial phage library (unsorted libraries) and from the second and third rounds of solution selection (sorted libraries). […]
Test [4] has the same target. Kind of test: SPR, Fab analyte, 37 C.
Experimental: as §1
Test [5] shares this target. Kind of test: phage display selection of affinity maturation libraries + NGS; enrichment of the mutation R96Q (VH).
Experimental: as §2, §3, §4

B1: H4 Fab (VH F29Q) (Fab, V domains shown)
VH: EVQLVESGGGLVQPGGSLRLSCAASGFTQSNYAMSWVRQAPGKGLEWVATVTEGGDYNYYLDDVKGRFTISRDNAKNSLYLQMNSLRAEDTAVYYCARDRWPYFFDYWGQGTLVTVSS
VL: DIQMTQSPSSLSASVGDRVTITCRASENIYSNLAWYQQKPGKSPKLLVYGAKNLADGVPSRFSGSGSGTDYTLTISSLQPEDFATYYCQHFWTTPRTFGGGTKVEIK
notes: Fab with 8xHis tag
One may read the Kd as the equilibrium constant for the complex coming apart. For orientation: koff means the first-order rate constant of dissociation. One may read the kon as the second-order rate constant of association. Read a low kon as slow association. In test [1], B1 came in with a Kd of 0.0421 nM, a koff of 0.000231 s⁻¹ and a kon of 5.49e+06 M⁻¹ s⁻¹. Further, in test [2], the “Fold Improvement in KD @ 25° C.” value stood at 8 fold. Also, the “Enrichment ratio (at the highest selection stringency)” value in test [3] stood at 3.02 ratio.

B2: H6 Fab (VH R96Q) (Fab, V domains shown)
VH: EVQLVESGGGLVQPGGSLRLSCAASGFTFSNYAMSWVRQAPGKGLEWVATVTEGGDYNYYLDDVKGRFTISRDNAKNSLYLQMNSLRAEDTAVYYCARDQWPYFFDYWGQGTLVTVSS
VL: DIQMTQSPSSLSASVGDRVTITCRASENIYSNLAWYQQKPGKSPKLLVYGAKNLADGVPSRFSGSGSGTDYTLTISSLQPEDFATYYCQHFWTTPRTFGGGTKVEIK
notes: Fab with 8xHis tag
In test [1], B2 yielded a Kd of 0.0468 nM, a dissociation rate constant (koff) of 0.00025 s⁻¹ and a kon of 5.34e+06 M⁻¹ s⁻¹. In test [4], this molecule returned a Kd of 0.188 nM, a koff of 0.000708 s⁻¹ and an on-rate (kon) of 3.76e+06 M⁻¹ s⁻¹. For the same molecule, in test [2], the “Fold Improvement in KD @ 25° C.” value was determined as 7.2 fold and the “Fold Improvement in KD @ 37° C.” value was 1.43 fold. For the same molecule, in test [5], the “Enrichment ratio (at the highest selection stringency)” value came out at 3.8 ratio.

Source of the values: US20260015426A1 (23ANDME, published 2026).
